Results published in patent publication US20180291335A1, “MODIFIED POLYNUCLEOTIDES FOR ALTERING CELL PHENOTYPE” (ModernaTX, Inc., priority 2012, published 2018).

Assays:
[1] = tested on: HeLa cells; assay: In vitro screening in HeLa cells, luciferase modified RNA; format: cell-based, human; design: key to Protein (Luc; HeLa): the protein production of HeLa is judged by “+,” “+1-” and “−”; the protein production of HeLa is judged by “+,” “+1-” and “−”; the protein production of HeLa is judged by “+,” “+1-” and “−”; settings: for Protein (Luc; HeLa): Table 30, non-naturally occurring chemistries, luciferase modified mRNA in HeLa, ** = second result, IVT with mutant T7 polymerase; for RLU: HeLa cells, 83 ng luciferase modified RNA, 18 to 22 hours
Protocol: The day before transfection, 20,000 HeLa cells (ATCC no. CCL-2; Manassas, Va.) were harvested by treatment with Trypsin-EDTA solution (LifeTechnologies, Grand Island, N.Y.) and seeded in a total volume of 100 ul EMEM medium (supplemented with 10% FCS and 1× Glutamax) per well in a 96-well cell culture plate (Corning, Manassas, Va.). The cells were grown at […] in 5% CO2 atmosphere overnight. […] Lipofectamine 2000 (LifeTechnologies, Grand Island, N.Y.) was used as transfection reagent and 0.2 ul were diluted in 10 ul final volume of OPTI-MEM. After 5 minutes of incubation at room temperature, both solutions were combined and incubated an additional 15 minute at room temperature. Then the 20 ul combined solution was added to the 100 ul cell culture medium containing the HeLa cells and incubated at room temperature.
After 18 to 22 hours of incubation cells expressing luciferase were lysed with 100 ul of Passive Lysis Buffer (Promega, Madison, Wis.) according to manufacturer instructions. Aliquots of the lysates were transferred to white opaque polystyrene 96-well plates (Corning, Manassas, Va.) and combined with 100 ul complete luciferase assay solution (Promega, Madison, Wis.). The lysate volumes were adjusted or diluted until no more than 2 mio relative light units (RLU) per well were detected for the strongest signal producing samples and the RLUs for each chemistry tested are shown in Table 19. The plate reader was a BioTek Synergy H1 (BioTek, Winooski, Vt.). The background signal of the plates without reagent was about 200 relative light units per well.

[2] = tested on: peripheral blood mononuclear cells (PBMC); assay: In vitro screening in PBMC: G-CSF protein expression by ELISA; format: cell-based, human
Source text: (§1) The supernatant was harvested and stored frozen until analyzed by ELISA to determine the G-CSF protein expression, and the induction of the cytokines interferon-alpha (IFN-α) and tumor necrosis factor alpha (TNF-α).

[3] = tested on: interferon-alpha (IFN-α); assay: In vitro screening in PBMC: interferon-alpha induction by ELISA; format: cell-based, human; settings: for Cytokines (G-CSF; PBMC): Table 30, non-naturally occurring chemistries, IFN-alpha from G-CSF modified mRNA in PBMC, background about 70 pg/ml
Source text: as §1

[4] = tested on: HeLa cells; assay: G-CSF modified mRNA transfected in HeLa cells, G-CSF ELISA; format: cell-based, human; design: key to Protein (G-CSF; HeLa): the protein production of HeLa is judged by “+,” “+1-” and “−”; the protein production of HeLa is judged by “+,” “+1-” and “−”; the protein production of HeLa is judged by “+,” “+1-” and “−”; settings: for Protein (G-CSF; HeLa): Table 30, non-naturally occurring chemistries, G-CSF modified mRNA in HeLa; for G-CSF protein (pg/ml) HeLa cells: ELISA
Protocol: (§2) To assess the activity of all our different chemical modifications in the context of a second open reading frame, we replicated experiments previously conducted using luciferase mRNA, with human G-CSF mRNA. […] The mutant T7 polymerase was obtained commercially (Durascribe® T7 Transcription kit (Cat. No. DS010925) (Epicentre®, Madison, Wis.).
(§3) The modified RNA in Tables 27 and 28 were transfected in vitro in HeLa cells or added to rabbit reticulysates (250 ng of modified mRNA) as indicated. […] In Table 27, “NT” means not tested.

[5] = tested on: Rabbit Reticulocyte Lysate; assay: In vitro screening in rabbit reticulocyte lysates, luciferase mRNA translation; format: biochemical; settings: 250 ng luciferase mRNA, 60 minutes, 30° C.
Protocol: The diluted luciferase was added to 40 ul of freshly prepared Rabbit Reticulocyte Lysate and the in vitro translation reaction was done in a standard 1.5 mL polypropylene reaction tube (Thermo Fisher Scientific, Waltham, Mass.) at 30° C. in a dry heating block. The translation assay was done with the Rabbit Reticulocyte Lysate (nuclease-treated) kit (Promega, Madison, Wis.) according to the manufacturer's instructions. The reaction buffer was supplemented with a one-to-one blend of provided amino acid stock solutions devoid of either Leucine or Methionine resulting in a reaction mix containing sufficient amounts of both amino acids to allow effective in vitro translation.
After 60 minutes of incubation, the reaction was stopped by placing the reaction tubes on ice. Aliquots of the in vitro translation reaction containing luciferase modified RNA were transferred to white opaque polystyrene 96-well plates (Corning, Manassas, Va.) and combined with 100 ul complete luciferase assay solution (Promega, Madison, Wis.). The volumes of the in vitro translation reactions were adjusted or diluted until no more than 2 mio relative light units (RLUs) per well were detected for the strongest signal producing samples and the RLUs for each chemistry tested are shown in Table 20. The plate reader was a BioTek Synergy H1 (BioTek, Winooski, Vt.). The background signal of the plates without reagent was about 200 relative light units per well.

[6] = tested on: rabbit reticulysates; assay: G-CSF modified mRNA in rabbit reticulysates, G-CSF ELISA; format: biochemical; settings: 250 ng of modified mRNA
Protocol: as §2, §3

[7] = tested on: tumor necrosis factor alpha (TNF-α); assay: In vitro screening in PBMC: tumor necrosis factor alpha induction by ELISA; format: cell-based, human
Source text: as §1

[8] = PBMC Donor 1, 500 ng G-CSF mRNA
[9] = PBMC Donor 1, 500 ng G-CSF mRNA, listed as 5-methylcytosine and pseudouridine (2nd set)
[10] = PBMC Donor 1, 500 ng G-CSF mRNA, listed as 5-methylcytosine and pseudouridine (3rd set)
[11] = PBMC Donor 1, 500 ng G-CSF mRNA, listed as 5-methylcytosine and pseudouridine (4th set)
[12] = PBMC Donor 2, 500 ng G-CSF mRNA
[13] = PBMC Donor 2, 500 ng G-CSF mRNA, listed as 5-methylcytosine and pseudouridine (2nd set)
[14] = PBMC Donor 2, 500 ng G-CSF mRNA, listed as 5-methylcytosine and pseudouridine (3rd set)
[15] = PBMC Donor 2, 500 ng G-CSF mRNA, listed as 5-methylcytosine and pseudouridine (4th set)
[16] = PBMC Donor 3, 500 ng G-CSF mRNA
[17] = PBMC Donor 3, 500 ng G-CSF mRNA, listed as 5-methylcytosine and pseudouridine (2nd set)
[18] = PBMC Donor 3, 500 ng G-CSF mRNA, listed as 5-methylcytosine and pseudouridine (3rd set)
[19] = PBMC Donor 3, 500 ng G-CSF mRNA, listed as 5-methylcytosine and pseudouridine (4th set)

## 5-Br-Uridine [Compound 5-Br-Uridine]
[1]
  Protein (Luc; HeLa): +
[2]; Table 30, non-naturally occurring chemistries, G-CSF modified mRNA in PBMC, background about 110 pg/ml
  Protein (G-CSF; PBMC): + (“+” means greater than 300 pg/ml G-CSF)
[3]
  Cytokines (G-CSF; PBMC): + (“+” means greater than 100 pg/ml IFN-alpha)
[4]
  Protein (G-CSF; HeLa): +

## COC(=O)C=Cc1cn([C@@H]2O[C@H](CO)[C@@H](O)[C@H]2O)c(=O)[nH]c1=O [5-(2-carbomethoxyvinyl) Uridine]
[1]
  Protein (Luc; HeLa): −
[3]
  Cytokines (G-CSF; PBMC): − (“−” means less than 100 pg/ml)
[4]
  Protein (G-CSF; HeLa): −

## N4-acetylcytidine (ac4c): Luciferase mRNA (SEQ ID NO: 409) modified with N4-acetylcytidine
[5]
  RLU: 60,879 RLU
[1]
  RLU: 235,412 RLU

## N6-methyladenosine (m6a): Luciferase mRNA (SEQ ID NO: 409) modified with N6-methyladenosine
[5]
  RLU: 398 RLU
[1]
  RLU: 534 RLU

## 5 (3-1E propenyl Amino) uridine: Luciferase mRNA (SEQ ID NO: 409) modified with 5 (3-1E propenyl Amino) uridine
[5]
  RLU: 211 RLU
[1]
  RLU: 446 RLU

## 5-methylcytidine (m5c): Luciferase mRNA (SEQ ID NO: 409) modified with 5-methylcytidine
[5]
  RLU: 152,989 RLU
[1]
  RLU: 138,428 RLU

## Luciferase control: luciferase control mRNA (SEQ ID NO: 409) fully modified with 5-methylcytosine and N1-methylpseudouridine [reference compound]
[6]
  G-CSF protein (pg/ml) Rabbit reticulysates cells: 0 pg/mL

## 5 (2 carbovinyl) uridine: Luciferase mRNA (SEQ ID NO: 409) modified with 5 (2 carbovinyl) uridine
[5]
  RLU: 225 RLU
[1]
  RLU: 531 RLU

B1: 5-methylcytosine and pseudouridine (1^st set): G-CSF mRNA (SEQ ID NO: 408) fully modified with 5-methylcytosine and pseudouridine; repeated sets/tests (nucleic acid)
chain: GGGAAAUAAGAGAGAAAAGAAGAGUAAGAAGAAAUAUAAGAGCCACCAUGGCCGGUCCCGCGACCCAAAGCCCCAUGAAACUUAUGGCCCUGCAGUUGCUGCUUUGGCACUCGGCCCUCUGGACAGUCCAAGAAGCGACUCCUCUCGGACCUGCCUCAUCGUUGCCGCAGUCAUUCCUUUUGAAGUGUCUGGAGCAGGUGCGAAAGAUUCAGGGCGAUGGAGCCGCACUCCAAGAGAAGCUCUGCGCGACAUACAAACUUUGCCAUCCCGAGGAGCUCGUACUGCUCGGGCACAGCUUGGGGAUUCCCUGGGCUCCUCUCUCGUCCUGUCCGUCGCAGGCUUUGCAGUUGGCAGGGUGCCUUUCCCAGCUCCACUCCGGUUUGUUCUUGUAUCAGGGACUGCUGCAAGCCCUUGAGGGAAUCUCGCCAGAAUUGGGCCCGACGCUGGACACGUUGCAGCUCGACGUGGCGGAUUUCGCAACAACCAUCUGGCAGCAGAUGGAGGAACUGGGGAUGGCACCCGCGCUGCAGCCCACGCAGGGGGCAAUGCCGGCCUUUGCGUCCGCGUUUCAGCGCAGGGCGGGUGGAGUCCUCGUAGCGAGCCACCUUCAAUCAUUUUUGGAAGUCUCGUACCGGGUGCUGAGACAUCUUGCGCAGCCGUGAAGCGCUGCCUUCUGCGGGGCUUGCCUUCUGGCCAUGCCCUUCUUCUCUCCCUUGCACCUGUACCUCUUGGUCUUUGAAUAAAGCCUGAGUAGGAAG
modifications: 5-methylcytosine/pseudouridine modified; Description of Artificial Sequence: Synthetic Transcript Sequence
notes: repeated sets/tests
[2]; [8]
  G-CSF Protein Expression: 2,632 pg/ml
[2]; [9]
  G-CSF Protein Expression: 1,682 pg/ml
[2]; [10]
  G-CSF Protein Expression: 1,595 pg/ml
[2]; [11]
  G-CSF Protein Expression: 264 pg/mL
[2]; [12]
  G-CSF Protein Expression: 1,955 pg/ml
[2]; [13]
  G-CSF Protein Expression: 1,382 pg/ml
[2]; [14]
  G-CSF Protein Expression: 1,432 pg/ml
[2]; [15]
  G-CSF Protein Expression: 350 pg/mL
[2]; [16]
  G-CSF Protein Expression: 1,373 pg/ml
[2]; [17]
  G-CSF Protein Expression: 1,036 pg/ml
[2]; [18]
  G-CSF Protein Expression: 955 pg/mL
[2]; [19]
  G-CSF Protein Expression: 182 pg/mL
[3]; [8]
  IFN-α Expression: 88 pg/mL
[3]; [9]
  IFN-α Expression: 133 pg/mL
[3]; [10]
  IFN-α Expression: 88 pg/mL
[3]; [11]
  IFN-α Expression: 131 pg/mL
[3]; [12]
  IFN-α Expression: 94 pg/mL
[3]; [13]
  IFN-α Expression: 92 pg/mL
[3]; [14]
  IFN-α Expression: 75 pg/mL
[3]; [15]
  IFN-α Expression: 28 pg/mL
[3]; [16]
  IFN-α Expression: 148 pg/mL
[3]; [17]
  IFN-α Expression: 167 pg/mL
[3]; [18]
  IFN-α Expression: 150 pg/mL
[3]; [19]
  IFN-α Expression: 18 pg/mL
[6]; listed as 5-methylcytosine/pseudouridine, Test A
  G-CSF protein (pg/ml) Rabbit reticulysates cells: 119,750 pg/ml
[6]; listed as 5-methylcytosine/pseudouridine, Test B
  G-CSF protein (pg/ml) Rabbit reticulysates cells: 57,875 pg/ml
[6]; listed as 5-methylcytosine/pseudouridine, Test C
  G-CSF protein (pg/ml) Rabbit reticulysates cells: 49,250 pg/ml
[6]; listed as 5-methylcytosine/pseudouridine, Test D
  G-CSF protein (pg/ml) Rabbit reticulysates cells: 47,750 pg/ml
[4]; G-CSF mRNA, listed as 5-methylcytosine/pseudouridine, Test A
  G-CSF protein (pg/ml) HeLa cells: 609,545 pg/ml
[4]; G-CSF mRNA, listed as 5-methylcytosine/pseudouridine, Test B
  G-CSF protein (pg/ml) HeLa cells: 358,182 pg/ml
[4]; G-CSF mRNA, listed as 5-methylcytosine/pseudouridine, Test C
  G-CSF protein (pg/ml) HeLa cells: 882,500 pg/ml
[4]; G-CSF mRNA, listed as 5-methylcytosine/pseudouridine, Test D
  G-CSF protein (pg/ml) HeLa cells: 87,045 pg/ml
[4]; combination chemistries
  G-CSF protein (pg/ml) HeLa cells: 301,364 pg/ml
[7]; [8]
  TNF-α Expression: 64 pg/mL
[7]; [9]
  TNF-α Expression: 99 pg/mL
[7]; [10]
  TNF-α Expression: 84 pg/mL
[7]; [11]
  TNF-α Expression: 53 pg/mL
[7]; [12]
  TNF-α Expression: 89 pg/mL
[7]; [13]
  TNF-α Expression: 111 pg/mL
[7]; [14]
  TNF-α Expression: 89 pg/mL
[7]; [15]
  TNF-α Expression: 24 pg/mL
[7]; [16]
  TNF-α Expression: 121 pg/mL
[7]; [17]
  TNF-α Expression: 150 pg/mL
[7]; [18]
  TNF-α Expression: 130 pg/mL
[7]; [19]
  TNF-α Expression: 29 pg/mL
